Test results reported in PMC5841623 (Journal of molecular biology, 2016).

Molecular target: Recombinant DnaJ-1-HA (Drosophila, UniProt Q24133 1-334)
Experiment: co-IP

Sequence of Recombinant DnaJ-1-HA (Q24133 whole entry): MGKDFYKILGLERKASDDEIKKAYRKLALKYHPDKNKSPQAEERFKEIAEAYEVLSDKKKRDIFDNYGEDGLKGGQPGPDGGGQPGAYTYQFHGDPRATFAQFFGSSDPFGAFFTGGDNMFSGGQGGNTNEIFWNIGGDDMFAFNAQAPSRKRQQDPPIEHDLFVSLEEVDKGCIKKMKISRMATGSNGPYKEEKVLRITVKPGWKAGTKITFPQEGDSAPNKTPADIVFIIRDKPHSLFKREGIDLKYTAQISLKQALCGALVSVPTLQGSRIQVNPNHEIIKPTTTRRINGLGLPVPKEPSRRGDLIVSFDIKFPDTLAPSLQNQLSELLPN

binding result: binds
B1: Recombinant His-MLF (natural protein, Drosophila, UniProt Q9NKV0-2 1-309, looked up)
chain: MSLFGALMGDFDDDLGLMNNHMNHTMNAMNMQMRSMNRLMNSFMPDPFMQVSPFDQGFQQNALMERPQMPAMPAMGLFGMPMMPNFNRLLNADIGGNSGASFCQSTVMTMSSGPDGRPQIYQASTSTKTGPGGVRETRRTVQDSRTGVKKMAIGHHIGERAHIIEKEQDMRSGQLEERQEFINLEEGEAEQFDREFTSRASRGAVQSRHHAGGMQAIMPARPAAHTSTLTIEPVEDDDDDDDDCVIQEQQPVRSSAGRHYSSAPTAPQNSIHPHPYAANPRRQQRAVKHFHTEDEAASSYKAVKRGKKK
